From publication PMC9482650, “Quantitative fragmentomics allow affinity mapping of interactomes” (Nature Communications, 2022)

T1: CNKSR1, Q969H4
T1 sequence (Q969H4 191-295, limits assumed, looked up): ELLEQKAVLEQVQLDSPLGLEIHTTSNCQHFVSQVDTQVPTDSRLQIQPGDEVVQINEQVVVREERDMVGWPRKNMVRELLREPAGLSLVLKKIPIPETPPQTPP

T2: INTU, Q9ULD6
T2 sequence (Q9ULD6 180-273, limits assumed, looked up): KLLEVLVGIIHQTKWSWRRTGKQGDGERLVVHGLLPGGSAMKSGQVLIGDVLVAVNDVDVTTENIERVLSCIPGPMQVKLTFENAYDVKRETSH

T3: RGS12, O14924
T3 sequence (O14924 17-108, limits assumed, looked up): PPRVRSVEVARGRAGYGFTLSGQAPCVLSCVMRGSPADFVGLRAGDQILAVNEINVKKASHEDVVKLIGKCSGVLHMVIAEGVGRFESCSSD

T4: LNX2_1, Q8N448
T4 sequence (Q8N448 228-328, limits assumed, looked up): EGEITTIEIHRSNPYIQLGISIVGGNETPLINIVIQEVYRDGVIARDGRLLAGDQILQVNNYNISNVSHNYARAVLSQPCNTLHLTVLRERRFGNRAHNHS


Columns and labels:
Test in all cases: holdup assay
Design in all cases: key: below the threshold = too weak to quantify, mostly under pKd 3.1 to 4
CNKSR1, Q969H4 = molecular target: T1, CNKSR1, Q969H4
LIMK1, P53667 = molecular target: LIMK1, P53667
INTU, Q9ULD6 = molecular target: T2, INTU, Q9ULD6
RGS12, O14924 = molecular target: T3, RGS12, O14924
LNX2_1, Q8N448 = molecular target: T4, LNX2_1, Q8N448
GIPC3, Q8TF64 = molecular target: GIPC3, Q8TF64
LNX1_4, Q8TBB1 = molecular target: LNX1_4, Q8TBB1
Q9NR12 = conditions: plain residues with an end cap or a label only (N-terminal biotin on a linker: ttds)
Q9H190 = conditions: plain residues with an end cap or a label only (N-terminal biotin on a linker: ttds)
O00560 = conditions: plain residues with an end cap or a label only (N-terminal biotin on a linker: ttds)
Q9P227 = conditions: plain residues with an end cap or a label only (N-terminal biotin on a linker: ttds)
Q8TEW0 = conditions: plain residues with an end cap or a label only (N-terminal biotin on a linker: ttds)
Q70Z35 = conditions: plain residues with an end cap or a label only (N-terminal biotin on a linker: ttds)
Q9ULJ8 = conditions: plain residues with an end cap or a label only (N-terminal biotin on a linker: ttds)
O43166 = conditions: plain residues with an end cap or a label only (N-terminal biotin on a linker: ttds)
O15021 = conditions: plain residues with an end cap or a label only (N-terminal biotin on a linker: ttds)
Q6ZWJ1 = conditions: plain residues with an end cap or a label only (N-terminal biotin on a linker: ttds)
Q96JB8 = conditions: plain residues with an end cap or a label only (N-terminal biotin on a linker: ttds)
Q9NPB6 = conditions: plain residues with an end cap or a label only (N-terminal biotin on a linker: ttds)
Q9C0E4 = conditions: plain residues with an end cap or a label only (N-terminal biotin on a linker: ttds)
Q13368 = conditions: plain residues with an end cap or a label only (N-terminal biotin on a linker: ttds)
Q9UMS6 = conditions: plain residues with an end cap or a label only (N-terminal biotin on a linker: ttds)
Q96FS4 = conditions: plain residues with an end cap or a label only (N-terminal biotin on a linker: ttds)
Q9UDY2 = conditions: plain residues with an end cap or a label only (N-terminal biotin on a linker: ttds)
Q8TDM6 = conditions: plain residues with an end cap or a label only (N-terminal biotin on a linker: ttds)
Q8TB45 = conditions: plain residues with an end cap or a label only (N-terminal biotin on a linker: ttds)
[1] = plain residues with an end cap or a label only (N-terminal biotin on a linker: none)
[2] = plain residues with an end cap or a label only (N-terminal biotin on a linker: ttds)

Chain of LIMK1, P53667 (P53667 155-268): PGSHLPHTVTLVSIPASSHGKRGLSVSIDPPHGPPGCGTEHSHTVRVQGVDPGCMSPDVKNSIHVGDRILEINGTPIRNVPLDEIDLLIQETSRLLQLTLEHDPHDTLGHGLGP
Chain of GIPC3, Q8TF64 (Q8TF64 107-202): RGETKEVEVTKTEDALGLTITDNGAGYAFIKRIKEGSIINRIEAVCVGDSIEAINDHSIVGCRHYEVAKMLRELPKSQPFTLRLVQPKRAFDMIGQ
Chain of LNX1_4, Q8TBB1 (Q8TBB1 631-726): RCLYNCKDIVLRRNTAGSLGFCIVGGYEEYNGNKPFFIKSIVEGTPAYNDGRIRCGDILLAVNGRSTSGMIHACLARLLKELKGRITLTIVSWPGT

Binder	pKd (INTU, Q9ULD6; [2])	pKd (Q9NR12)	pKd (Q9H190)	pKd (O00560)	pKd (Q9P227)	pKd (CNKSR1, Q969H4; [2])	pKd (Q8TEW0)	pKd (Q70Z35)	pKd (Q9ULJ8)	pKd (LIMK1, P53667; [2])	pKd (O43166)	pKd (RGS12, O14924; [2])	pKd (Q6ZWJ1)	pKd (Q96JB8)	pKd (Q9NPB6)	pKd (Q9C0E4)	pKd (Q13368)	pKd (Q9UMS6)	pKd (Q96FS4)	pKd (GIPC3, Q8TF64; [2])	other results
DSKPPLPPDEWV [MERS-E, K9N5R3]																					pKd (CNKSR1, Q969H4; [1]): below the threshold; pKd (LIMK1, P53667; [1]): below the threshold; pKd (INTU, Q9ULD6; [1]): below the threshold; pKd (RGS12, O14924; [1]): below the threshold; pKd (LNX2_1, Q8N448; [1]): 4.21; pKd (GIPC3, Q8TF64; [1]): below the threshold; pKd (LNX1_4, Q8TBB1; [1]): below the threshold
SEKHFRETEV [HTLV1-TAX1, P03409]	3.8																				pKd (LNX2_1, Q8N448; [2]): below the threshold; pKd (LNX1_4, Q8TBB1; [2]): below the threshold
CLDTSRETDL [KCNA5, P22460]		below the threshold	below the threshold	below the threshold	below the threshold	below the threshold	below the threshold	below the threshold	below the threshold	4.3	below the threshold	below the threshold	below the threshold	below the threshold	below the threshold	below the threshold	below the threshold	below the threshold	below the threshold	below the threshold	pKd (O15021): below the threshold; pKd (Q9UDY2): below the threshold
RTRQRNETQV [HPV51-E6, P26554]	below the threshold	below the threshold	below the threshold	below the threshold	below the threshold	4.44	below the threshold	below the threshold	below the threshold	below the threshold	below the threshold	below the threshold	below the threshold	below the threshold	below the threshold	below the threshold	below the threshold	below the threshold	below the threshold	below the threshold	pKd (Q8TDM6): below the threshold; pKd (Q8TB45): below the threshold; pKd (Q9UDY2): below the threshold
HRTCYLVTQL [ASIC3, Q9UHC3]		below the threshold	below the threshold	below the threshold	below the threshold	below the threshold	below the threshold	below the threshold	below the threshold		below the threshold	4.28	below the threshold	below the threshold	below the threshold	below the threshold	below the threshold	below the threshold	below the threshold	below the threshold	pKd (O15021): below the threshold; pKd (Q9UDY2): below the threshold
HIVEALETDV [PBK, Q96KB5]	4.9	below the threshold	below the threshold	below the threshold	below the threshold	below the threshold	below the threshold	below the threshold	below the threshold	4.63	below the threshold	below the threshold	below the threshold	below the threshold	below the threshold	below the threshold	below the threshold	below the threshold	below the threshold	below the threshold	pKd (O15021): below the threshold; pKd (Q9UDY2): below the threshold
DEDQHTQITKV [PTEN, P60484]	below the threshold									below the threshold											pKd (LNX2_1, Q8N448; [2]): below the threshold
RRVRKLPSTTL [RPS6KA1, Q15418]	below the threshold					below the threshold				below the threshold		3.56								below the threshold	pKd (LNX2_1, Q8N448; [2]): below the threshold; pKd (LNX1_4, Q8TBB1; [2]): below the threshold
QPGTPTRTAV [MAP2K2, P36507]	below the threshold	below the threshold	below the threshold	below the threshold	below the threshold	4.07	below the threshold	below the threshold	below the threshold	4.2	below the threshold	below the threshold	below the threshold	below the threshold	below the threshold	below the threshold	below the threshold	below the threshold	below the threshold	below the threshold	pKd (O15021): below the threshold; pKd (Q9UDY2): below the threshold
TGDTLEKFVEGL [CBP, Q92793]	below the threshold									below the threshold				below the threshold							pKd (LNX2_1, Q8N448; [2]): below the threshold; pKd (LNX1_4, Q8TBB1; [2]): 4.65
MERLRVETDV [ARHGEF16, Q5VV41]	4.32	below the threshold	below the threshold	below the threshold	below the threshold	4.16	below the threshold	below the threshold	below the threshold	below the threshold	below the threshold	below the threshold	below the threshold	below the threshold	below the threshold	below the threshold	below the threshold	below the threshold	below the threshold	below the threshold	pKd (O15021): below the threshold; pKd (Q9UDY2): below the threshold
